Data published in the supplement of paper PMC5998384.

Assays:
[1] = system: HeLa Kyoto; experiment: solubility in G1/S (NP-40 vs SDS abundance) (log2 ratio); higher = more soluble; conditions: cell cycle stage: G1/S
[2] = system: HeLa Kyoto; experiment: solubility change mitosis vs G1/S (difference of NP-40 vs SDS log2 ratios) (log2 ratio difference); higher = more soluble in mitosis
[3] = system: HeLa Kyoto; experiment: thermal stability score vs G1/S (z-score of summed log2 fold changes over temperatures); higher = more thermally stable than in G1/S
[4] = system: HeLa Kyoto; experiment: melting temperature (median over replicates), in situ; higher = more thermally stable
[5] = cell cycle stage: early G1 (4.5 h after nocodazole release)
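Throughout, for melting temperature (median over replicates), in situ: HeLa Kyoto cells synchronized by double thymidine or nocodazole block, proteins quantified by TMT10plex mass spectrometry, three independent biological replicates.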
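Throughout, for solubility change mitosis vs G1/S (difference of NP-40 vs SDS log2 ratios): synchronized HeLa Kyoto cells (double thymidine block for G1/S, nocodazole release for mitosis), protein amounts in NP-40 versus SDS lysates quantified by mass spectrometry, three biological replicates.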
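Throughout, for solubility in G1/S (NP-40 vs SDS abundance): HeLa Kyoto cells arrested at G1/S by double thymidine block, proteins quantified by TMT10plex mass spectrometry in mild NP-40 versus SDS extracts, three biological replicates.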
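Throughout, for thermal stability score vs G1/S (z-score of summed log2 fold changes over temperatures): synchronized HeLa Kyoto cells, proteins quantified by TMT10plex mass spectrometry, three biological replicates, mitosis taken 0.5 h after nocodazole release, G1/S directly after double thymidine block.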

Sequence	solubility in G1/S (log2) [1]	solubility change mitosis (log2) [2]	thermal stability score [3, 5]	thermal stability score ([3]; cell cycle stage: mitosis)	melting temperature ([4]; cell cycle stage: G1/S)	melting temperature ([4]; cell cycle stage: mitosis)
MLYLIGLGLGDAKDITVKGLEVVRRCSRVYLEAYTSVLTVGKEALEEFYGRKLVVADREEVEQEADNILKDADISDVAFLVVGDPFGATTHSDLVLRATKLGIPYRVIHNASIMNAVGCCGLQLYKFGETVSIVFWTDTWRPESFFDKVKKNRQNGMHTLCLLDIKVKEQSLENLIKGRKIYEPPRYMSVNQAAQQLLEIVQNQRIRGEEPAVTEETLCVGLARVGADDQKIAAGTLRQMCTVDLGEPLHSLIITGGSIHPMEMEMLSLFSIPENSSESQSINGL [DPH5]	0.11	-0.136	1.75	1.39	54.6 °C	55.3 °C
MMAAGAALALALWLLMPPVEVGGAGPPPIQDGEFTFLLPAGRKQCFYQSAPANASLETEYQVIGGAGLDVDFTLESPQGVLLVSESRKADGVHTVEPTEAGDYKLCFDNSFSTISEKLVFFELIFDSLQDDEEVEGWAEAVEPEEMLDVKMEDIKESIETMRTRLERSIQMLTLLRAFEARDRNLQEGNLERVNFWSAVNVAVLLLVAVLQVCTLKRFFQDKRPVPT [TMED1]	0.437	-0.147	2.89	2.9	55.1 °C	57.2 °C
MMDLRNTPAKSLDKFIEDYLLPDTCFRMQINHAIDIICGFLKERCFRGSSYPVCVSKVVKGGSSGKGTTLRGRSDADLVVFLSPLTTFQDQLNRRGEFIQEIRRQLEACQRERAFSVKFEVQAPRWGNPRALSFVLSSLQLGEGVEFDVLPAFDALGQLTGGYKPNPQIYVKLIEECTDLQKEGEFSTCFTELQRDFLKQRPTKLKSLIRLVKHWYQNCKKKLGKLPPQYALELLTVYAWERGSMKTHFNTAQGFRTVLELVINYQQLCIYWTKYYDFKNPIIEKYLRRQLTKPRPVILDPADPTGNLGGGDPKGWRQLAQEAEAWLNYPCFKNWDGSPVSSWILLAESNSADDETDDPRRYQKYGYIGTHEYPHFSHRPSTLQAASTPQAEEDWTCTIL [OAS1]	0.134	-0.0843	-0.255	0.00402	50.5 °C	49.5 °C
MMGHRPVLVLSQNTKRESGRKVQSGNINAAKTIADIIRTCLGPKSMMKMLLDPMGGIVMTNDGNAILREIQVQHPAAKSMIEISRTQDEEVGDGTTSVIILAGEMLSVAEHFLEQQMHPTVVISAYRKALDDMISTLKKISIPVDISDSDMMLNIINSSITTKAISRWSSLACNIALDAVKMVQFEENGRKEIDIKKYARVEKIPGGIIEDSCVLRGVMINKDVTHPRMRRYIKNPRIVLLDSSLEYKKGESQTDIEITREEDFTRILQMEEEYIQQLCEDIIQLKPDVVITEKGISDLAQHYLMRANITAIRRVRKTDNNRIARACGARIVSRPEELREDDVGTGAGLLEIKKIGDEYFTFITDCKDPKACTILLRGASKEILSEVERNLQDAMQVCRNVLLDPQLVPGGGASEMAVAHALTEKSKAMTGVEQWPYRAVAQALEVIPRTLIQNCGASTIRLLTSLRAKHTQENCETWGVNGETGTLVDMKELGIWEPLAVKLQTYKTAVETAVLLLRIDDIVSGHKKKGDDQSRQGGAPDAGQE [CCT3]	0.216	-0.131	0.0574	-0.798	54 °C	53.6 °C
MMLGTEGGEGFVVKVRGLPWSCSADEVQRFFSDCKIQNGAQGIRFIYTREGRPSGEAFVELESEDEVKLALKKDRETMGHRYVEVFKSNNVEMDWVLKHTGPNSPDTANDGFVRLRGLPFGCSKEEIVQFFSGLEIVPNGITLPVDFQGRSTGEAFVQFASQEIAEKALKKHKERIGHRYIEIFKSSRAEVRTHYDPPRKLMAMQRPGPYDRPGAGRGYNSIGRGAGFERMRRGAYGGGYGGYDDYNGYNDGYGFGSDRFGRDLNYCFSGMSDHRYGDGGSTFQSTTGHCVHMRGLPYRATENDIYNFFSPLNPVRVHIEIGPDGRVTGEADVEFATHEDAVAAMSKDKANMQHRYVELFLNSTAGASGGAYEHRYVELFLNSTAGASGGAYGSQMMGGMGLSNQSSYGGPASQQLSGGYGGGYGGQSSMSGYDQVLQENSSDFQSNIA [HNRNPH1]	0.047	-0.00635	3.39	8.7	47.5 °C	48.2 °C
MMNKLYIGNLSPAVTADDLRQLFGDRKLPLAGQVLLKSGYAFVDYPDQNWAIRAIETLSGKVELHGKIMEVDYSVSKKLRSRKIQIRNIPPHLQWEVLDGLLAQYGTVENVEQVNTDTETAVVNVTYATREEAKIAMEKLSGHQFENYSFKISYIPDEEVSSPSPPQRAQRGDHSSREQGHAPGGTSQARQIDFPLRILVPTQFVGAIIGKEGLTIKNITKQTQSRVDIHRKENSGAAEKPVTIHATPEGTSEACRMILEIMQKEADETKLAEEIPLKILAHNGLVGRLIGKEGRNLKKIEHETGTKITISSLQDLSIYNPERTITVKGTVEACASAEIEIMKKLREAFENDMLAVNQQANLIPGLNLSALGIFSTGLSVLSPPAGPRGAPPAAPYHPFTTHSGYFSSLYPHHQFGPFPHHHSYPEQEIVNLFIPTQAVGAIIGKKGAHIKQLARFAGASIKIAPAEGPDVSERMVIITGPPEAQFKAQGRIFGKLKEENFFNPKEEVKLEAHIRVPSSTAGRVIGKGGKTVNELQNLTSAEVIVPRDQTPDENEEVIVRIIGHFFASQTAQRKIREIVQQVKQQEQKYPQGVASQRSK [IGF2BP2]	-0.0149	0.0614	-0.347	-0.134	48.7 °C	47.8 °C
MMRLRGSGMLRDLLLRSPAGVSATLRRAQPLVTLCRRPRGGGRPAAGPAAAARLHPWWGGGGWPAEPLARGLSSSPSEILQELGKGSTHPQPGVSPPAAPAAPGPKDGPGETDAFGNSEGKELVASGENKIKQGLLPSLEDLLFYTIAEGQEKIPVHKFITALKSTGLRTSDPRLKECMDMLRLTLQTTSDGVMLDKDLFKKCVQSNIVLLTQAFRRKFVIPDFMSFTSHIDELYESAKKQSGGKVADYIPQLAKFSPDLWGVSVCTVDGQRHSTGDTKVPFCLQSCVKPLKYAIAVNDLGTEYVHRYVGKEPSGLRFNKLFLNEDDKPHNPMVNAGAIVVTSLIKQGVNNAEKFDYVMQFLNKMAGNEYVGFSNATFQSERESGDRNFAIGYYLKEKKCFPEGTDMVGILDFYFQLCSIEVTCESASVMAATLANGGFCPITGERVLSPEAVRNTLSLMHSCGMYDFSGQFAFHVGLPAKSGVAGGILLVVPNVMGMMCWSPPLDKMGNSVKGIHFCHDLVSLCNFHNYDNLRHFAKKLDPRREGGDQRVKSVINLLFAAYTGDVSALRRFALSAMDMEQRDYDSRTALHVAAAEGHVEVVKFLLEACKVNPFPKDRWNNTPMDEALHFGHHDVFKILQEYQVQYTPQGDSDNGKENQTVHKNLDGLL	0.0237	-0.0383	0.55	2.21	49.7 °C	50.4 °C
MNAGSDPVVIVSAARTIIGSFNGALAAVPVQDLGSTVIKEVLKRATVAPEDVSEVIFGHVLAAGCGQNPVRQASVGAGIPYSVPAWSCQMICGSGLKAVCLAVQSIGIGDSSIVVAGGMENMSKAPHLAYLRTGVKIGEMPLTDSILCDGLTDAFHNCHMGITAENVAKKWQVSREDQDKVAVLSQNRTENAQKAGHFDKEIVPVLVSTRKGLIEVKTDEFPRHGSNIEAMSKLKPYFLTDGTGTVTPANASGINDGAAAVVLMKKSEADKRGLTPLARIVSWSQVGVEPSIMGIGPIPAIKQAVTKAGWSLEDVDIFEINEAFAAVSAAIVKELGLNPEKVNIEGGAIALGHPLGASGCRILVTLLHTLERMGRSRGVAALCIGGGMGIAMCVQRE [ACAT2]	0.305	-0.0395	-0.261	-1.17	58.4 °C	58.2 °C
MNEVSVIKEGWLHKRGEYIKTWRPRYFLLKSDGSFIGYKERPEAPDQTLPPLNNFSVAECQLMKTERPRPNTFVIRCLQWTTVIERTFHVDSPDEREEWMRAIQMVANSLKQRAPGEDPMDYKCGSPSDSSTTEEMEVAVSKARAKVTMNDFDYLKLLGKGTFGKVILVREKATGRYYAMKILRKEVIIAKDEVAHTVTESRVLQNTRHPFLTALKYAFQTHDRLCFVMEYANGGELFFHLSRERVFTEERARFYGAEIVSALEYLHSRDVVYRDIKLENLMLDKDGHIKITDFGLCKEGISDGATMKTFCGTPEYLAPEVLEDNDYGRAVDWWGLGVVMYEMMCGRLPFYNQDHERLFELILMEEIRFPRTLSPEAKSLLAGLLKKDPKQRLGGGPSDAKEVMEHRFFLSINWQDVVQKKLLPPFKPQVTSEVDTRYFDDEFTAQSITITPPDRYDSLGLLELDQRTHFPQFSYSASIRE [AKT2]	-0.0498	-0.26	1.03	0.619	50.5 °C	50.2 °C
MNGEADCPTDLEMAAPKGQDRWSQEDMLTLLECMKNNLPSNDSSKFKTTESHMDWEKVAFKDFSGDMCKLKWVEISNEVRKFRTLTELILDAQEHVKNPYKGKKLKKHPDFPKKPLTPYFRFFMEKRAKYAKLHPEMSNLDLTKILSKKYKELPEKKKMKYIQDFQREKQEFERNLARFREDHPDLIQNAKKSDIPEKPKTPQQLWYTHEKKVYLKVRPDATTKEVKDSLGKQWSQLSDKKRLKWIHKALEQRKEYEEIMRDYIQKHPELNISEEGITKSTLTKAERQLKDKFDGRPTKPPPNSYSLYCAELMANMKDVPSTERMVLCSQQWKLLSQKEKDAYHKKCDQKKKDYEVELLRFLESLPEEEQQRVLGEEKMLNINKKQATSPASKKPAQEGGKGGSEKPKRPVSAMFIFSEEKRRQLQEERPELSESELTRLLARMWNDLSEKKKAKYKAREAALKAQSERKPGGEREERGKLPESPKRAEEIWQQSVIGDYLARFKNDRVKALKAMEMTWNNMEKKEKLMWIKKAAEDQKRYERELSEMRAPPAATNSSKKMKFQGEPKKPPMNGYQKFSQELLSNGELNHLPLKERMVEIGSRWQRISQSQKEHYKKLAEEQQKQYKVHLDLWVKSLSPQDRAAYKEYISNKRKSMTKLRGPNPKSSRTTLQSKSESEEDDEEDEDDEDEDEEEEDDENGDSSEDGGDSSESSSEDESEDGDENEEDDEDEDDDEDDDEDEDNESEGSSSSSSSSGDSSDSDSN [UBTF]	-1.89	0.149	8.89	15.5	47.2 °C	
MNGTLDHPDQPDLDAIKMFVGQVPRTWSEKDLRELFEQYGAVYEINVLRDRSQNPPQSKGCCFVTFYTRKAALEAQNALHNMKVLPGMHHPIQMKPADSEKNNAVEDRKLFIGMISKKCTENDIRVMFSSFGQIEECRILRGPDGLSRGCAFVTFTTRAMAQTAIKAMHQAQTMEGCSSPMVVKFADTQKDKEQKRMAQQLQQQMQQISAASVWGNLAGLNTLGPQYLALYLQLLQQTASSGNLNTLSSLHPMGGLNAMQLQNLAALAAAASAAQNTPSGTNALTTSSSPLSVLTSSGSSPSSSSSNSVNPIASLGALQTLAGATAGLNVGSLAGMAALNGGLGSSGLSNGTGSTMEALTQAYSGIQQYAAAALPTLYNQNLLTQQSIGAAGSQKEGPEGANLFIYHLPQEFGDQDLLQMFMPFGNVVSAKVFIDKQTNLSKCFGFVSYDNPVSAQAAIQSMNGFQIGMKRLKVQLKRSKNDSKPY [CELF1]	0.269	-0.0537	1.56	2.85	47.5 °C	48.1 °C
